# Data taken from patent US20260258390.
# T1: succinyl-L-Ala-L-Ala-L-Pro-L-Phe-p-nitroanilide (SEQ ID NO: 1)
# T1 chain: AAPF
# Molecular target: T1, succinyl-L-Ala-L-Ala-L-Pro-L-Phe-p-nitro …
Protein,Km pH 8.6 (mM),Km pH 10 (mM),kcat pH 8.6 (% of wild-type) (% of wild-type),kcat pH 10 (% half-life of wild-type) (% of wild-type),kcat/Km pH 8.6 (% of wild-type) (% of wild-type),kcat/Km pH 10 (% wild-type)
N74D/S99G/V102W/S126G/N198A/N212S/T254P (variant of sequence SEQ ID NO: 5) (protein) AQSVPWGISRVQAPAAHNRGLTGSGVKVAVLDTGISTHPDLNIRGGASFVPGEPSTQDGNGHGTHVAGTIAALDNSIGVLGVAPSAELYAVKVLGASGGGSWSSIAQGLEWAGNNGMHVANLSLGGPSPSATLEQAVNSATSRGVLVVAASGNSGAGSISYPARYANAMAVGATDQNNNRASFSQYGAGLDIVAPGVAVQSTYPGSTYASLSGTSMATPHVAGAAALVKQKNPSWSNVQIRNHLKNTATSLGSPNLYGSGLVNAEAATR,0.05,0.09,503,723,6360,10800
wild-type subtilisin of Bacillus lentus (SEQ ID NO: 2) (protein) AQSVPWGISRVQAPAAHNRGLTGSGVKVAVLDTGISTHPDLNIRGGASFVPGEPSTQDGNGHGTHVAGTIAALNNSIGVLGVAPSAELYAVKVLGASGSGSVSSIAQGLEWAGNNGMHVANLSLGSPSPSATLEQAVNSATSRGVLVVAASGNSGAGSISYPARYANAMAVGATDQNNNRASFSQYGAGLDIVAPGVNVQSTYPGSTYASLNGTSMATPHVAGAAALVKQKNPSWSNVQIRNHLKNTATSLGSTNLYGSGLVNAEAATR,0.63,1.34,100,100,100,100
N74D/S97D/S126G/P204I/T254P/S259N (variant of sequence SEQ ID NO: 6) (protein) AQSVPWGISRVQAPAAHNRGLTGSGVKVAVLDTGISTHPDLNIRGGASFVPGEPSTQDGNGHGTHVAGTIAALDNSIGVLGVAPSAELYAVKVLGADGSGSVSSIAQGLEWAGNNGMHVANLSLGGPSPSATLEQAVNSATSRGVLVVAASGNSGAGSISYPARYANAMAVGATDQNNNRASFSQYGAGLDIVAPGVNVQSTYIGSTYASLNGTSMATPHVAGAAALVKQKNPSWSNVQIRNHLKNTATSLGSPNLYGNGLVNAEAATR,0.66,0.52,55,37,51,97
N74D/S101A/V102W (control variant of WO1995010591; sequence SEQ ID NO: 3) (protein) AQSVPWGISRVQAPAAHNRGLTGSGVKVAVLDTGISTHPDLNIRGGASFVPGEPSTQDGNGHGTHVAGTIAALDNSIGVLGVAPSAELYAVKVLGASGSGAWSSIAQGLEWAGNNGMHVANLSLGSPSPSATLEQAVNSATSRGVLVVAASGNSGAGSISYPARYANAMAVGATDQNNNRASFSQYGAGLDIVAPGVNVQSTYPGSTYASLNGTSMATPHVAGAAALVKQKNPSWSNVQIRNHLKNTATSLGSTNLYGSGLVNAEAATR,0.29,0.33,638,554,1390,2260
N74D/S99G/V102W/S126G/D191E/N198G/N212S/T254P (variant of sequence SEQ ID NO: 4) (protein) AQSVPWGISRVQAPAAHNRGLTGSGVKVAVLDTGISTHPDLNIRGGASFVPGEPSTQDGNGHGTHVAGTIAALDNSIGVLGVAPSAELYAVKVLGASGGGSWSSIAQGLEWAGNNGMHVANLSLGGPSPSATLEQAVNSATSRGVLVVAASGNSGAGSISYPARYANAMAVGATDQNNNRASFSQYGAGLEIVAPGVGVQSTYPGSTYASLSGTSMATPHVAGAAALVKQKNPSWSNVQIRNHLKNTATSLGSPNLYGSGLVNAEAATR,0.11,0.19,579,719,3330,5100
